The results in this text go back to patent US20250145673A1 (AFFILOGIC, published 2025).

Where a chain is given by its changes, count along the chain named.

To fix the notation:
B1: polypeptide having the amino acid sequence of SEQ ID NO: 27 (designed binder)
chain: MVKVKFEATGEEKEVDTSKIYQVYRSGKEVLFTYDDNGKTGWGYVSEKDAPKELLDMLARAEREK
notes: Sac7d variant (Nanofitin); also called parental clone of cluster 6; Nanofitin
B2: Fab NF-I (Fab fusion protein comprising SEQ ID NO: 36 and SEQ ID NO: 60) (other)
heavy: EVQLVESGGGLVQPGGSLRLSCAASGYDFTHYGMNWVRQAPGKGLEWVGWINTYTGEPTYAADFKRRFTFSLDTSKSTAYLQMNSLRAEDTAVYYCAKYPYYYGTSHWYFDVWGQGTLVTVSSASTKGPSVFPLAPSSKSTSGGTAALGCLVKDYFPEPVTVSWNSGALTSGVHTFPAVLQSSGLYSLSSVVTVPSSSLGTQTYICNVNHKPSNTKVDKKVEPKSCDKTHL
light: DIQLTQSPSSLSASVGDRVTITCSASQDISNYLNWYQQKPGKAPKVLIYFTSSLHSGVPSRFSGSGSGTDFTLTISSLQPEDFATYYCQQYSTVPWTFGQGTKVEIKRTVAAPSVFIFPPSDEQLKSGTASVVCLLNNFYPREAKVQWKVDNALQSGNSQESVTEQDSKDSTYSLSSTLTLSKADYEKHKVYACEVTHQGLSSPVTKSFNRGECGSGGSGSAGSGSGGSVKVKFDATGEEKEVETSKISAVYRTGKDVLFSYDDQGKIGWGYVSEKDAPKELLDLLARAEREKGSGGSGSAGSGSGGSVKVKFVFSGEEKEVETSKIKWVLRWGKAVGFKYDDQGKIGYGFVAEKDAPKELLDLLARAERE
B3: Fab NF-E (Fab fusion protein comprising SEQ ID NO: 59 and SEQ ID NO: 57) (other)
heavy: EVQLVESGGGLVQPGGSLRLSCAASGYDFTHYGMNWVRQAPGKGLEWVGWINTYTGEPTYAADFKRRFTFSLDTSKSTAYLQMNSLRAEDTAVYYCAKYPYYYGTSHWYFDVWGQGTLVTVSSASTKGPSVFPLAPSSKSTSGGTAALGCLVKDYFPEPVTVSWNSGALTSGVHTFPAVLQSSGLYSLSSVVTVPSSSLGTQTYICNVNHKPSNTKVDKKVEPKSCDKTHLGSGGSGSAGSGSGGSVKVKFVFSGEEKEVETSKIKWVLRWGKAVGFKYDDQGKIGYGFVAEKDAPKELLDLLARAERE
light: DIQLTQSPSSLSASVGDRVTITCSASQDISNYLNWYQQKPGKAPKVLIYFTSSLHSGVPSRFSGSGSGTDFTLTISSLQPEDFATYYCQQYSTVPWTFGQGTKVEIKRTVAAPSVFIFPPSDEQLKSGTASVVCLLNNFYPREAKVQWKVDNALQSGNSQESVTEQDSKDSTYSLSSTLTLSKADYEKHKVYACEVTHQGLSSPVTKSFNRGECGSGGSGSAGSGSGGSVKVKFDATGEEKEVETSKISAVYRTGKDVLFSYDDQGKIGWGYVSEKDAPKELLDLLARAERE
notes: Signal peptide cleaved off prior to secretion
B4: Fab NF-J (Fab fusion protein comprising SEQ ID NO: 58 and SEQ ID NO: 62) (other)
heavy: EVQLVESGGGLVQPGGSLRLSCAASGYDFTHYGMNWVRQAPGKGLEWVGWINTYTGEPTYAADFKRRFTFSLDTSKSTAYLQMNSLRAEDTAVYYCAKYPYYYGTSHWYFDVWGQGTLVTVSSASTKGPSVFPLAPSSKSTSGGTAALGCLVKDYFPEPVTVSWNSGALTSGVHTFPAVLQSSGLYSLSSVVTVPSSSLGTQTYICNVNHKPSNTKVDKKVEPKSCDKTHLGSGGSGSAGSGSGGSVKVKFDATGEEKEVETSKISAVYRTGKDVLFSYDDQGKIGWGYVSEKDAPKELLDLLARAERE
light: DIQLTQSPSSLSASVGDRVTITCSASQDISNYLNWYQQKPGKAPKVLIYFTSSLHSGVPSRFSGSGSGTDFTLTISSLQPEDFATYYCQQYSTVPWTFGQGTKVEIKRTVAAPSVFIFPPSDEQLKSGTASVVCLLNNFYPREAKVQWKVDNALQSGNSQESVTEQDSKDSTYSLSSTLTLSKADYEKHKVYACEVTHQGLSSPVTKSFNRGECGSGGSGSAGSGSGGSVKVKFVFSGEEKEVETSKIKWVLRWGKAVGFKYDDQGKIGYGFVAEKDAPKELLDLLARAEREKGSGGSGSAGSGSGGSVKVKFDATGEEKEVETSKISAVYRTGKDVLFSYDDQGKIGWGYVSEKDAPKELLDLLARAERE
B5: Fab NF-F (Fab fusion protein comprising SEQ ID NO: 63 and SEQ ID NO: 35) (other)
heavy: EVQLVESGGGLVQPGGSLRLSCAASGYDFTHYGMNWVRQAPGKGLEWVGWINTYTGEPTYAADFKRRFTFSLDTSKSTAYLQMNSLRAEDTAVYYCAKYPYYYGTSHWYFDVWGQGTLVTVSSASTKGPSVFPLAPSSKSTSGGTAALGCLVKDYFPEPVTVSWNSGALTSGVHTFPAVLQSSGLYSLSSVVTVPSSSLGTQTYICNVNHKPSNTKVDKKVEPKSCDKTHLGSGGSGSAGSGSGGSVKVKFVFSGEEKEVETSKIKWVLRWGKAVGFKYDDQGKIGYGFVAEKDAPKELLDLLARAEREKGSGGSGSAGSGSGGSVKVKFDATGEEKEVETSKISAVYRTGKDVLFSYDDQGKIGWGYVSEKDAPKELLDLLARAERE
light: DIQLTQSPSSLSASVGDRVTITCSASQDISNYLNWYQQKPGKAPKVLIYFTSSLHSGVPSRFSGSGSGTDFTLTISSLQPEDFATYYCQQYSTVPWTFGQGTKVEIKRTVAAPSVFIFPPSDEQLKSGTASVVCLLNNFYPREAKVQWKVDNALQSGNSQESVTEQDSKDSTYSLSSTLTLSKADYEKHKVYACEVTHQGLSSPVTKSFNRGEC
B6: Fab NF-H (Fab fusion protein comprising SEQ ID NO: 63 and SEQ ID NO: 62) (other)
heavy: B5 heavy
light: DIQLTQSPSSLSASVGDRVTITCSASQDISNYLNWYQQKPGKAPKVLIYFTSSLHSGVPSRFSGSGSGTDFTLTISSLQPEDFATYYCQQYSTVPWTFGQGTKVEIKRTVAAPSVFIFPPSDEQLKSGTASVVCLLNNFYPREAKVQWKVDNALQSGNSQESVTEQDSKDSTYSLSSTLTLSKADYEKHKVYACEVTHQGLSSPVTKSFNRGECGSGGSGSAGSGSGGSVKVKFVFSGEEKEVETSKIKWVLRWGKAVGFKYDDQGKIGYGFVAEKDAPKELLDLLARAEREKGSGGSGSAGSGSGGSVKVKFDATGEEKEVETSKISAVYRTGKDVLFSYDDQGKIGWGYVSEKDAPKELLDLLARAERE
B7: Fab NF-G (Fab fusion protein comprising SEQ ID NO: 61 and SEQ ID NO: 60) (other)
heavy: EVQLVESGGGLVQPGGSLRLSCAASGYDFTHYGMNWVRQAPGKGLEWVGWINTYTGEPTYAADFKRRFTFSLDTSKSTAYLQMNSLRAEDTAVYYCAKYPYYYGTSHWYFDVWGQGTLVTVSSASTKGPSVFPLAPSSKSTSGGTAALGCLVKDYFPEPVTVSWNSGALTSGVHTFPAVLQSSGLYSLSSVVTVPSSSLGTQTYICNVNHKPSNTKVDKKVEPKSCDKTHLGSGGSGSAGSGSGGSVKVKFDATGEEKEVETSKISAVYRTGKDVLFSYDDQGKIGWGYVSEKDAPKELLDLLARAEREKGSGGSGSAGSGSGGSVKVKFVFSGEEKEVETSKIKWVLRWGKAVGFKYDDQGKIGYGFVAEKDAPKELLDLLARAERE
light: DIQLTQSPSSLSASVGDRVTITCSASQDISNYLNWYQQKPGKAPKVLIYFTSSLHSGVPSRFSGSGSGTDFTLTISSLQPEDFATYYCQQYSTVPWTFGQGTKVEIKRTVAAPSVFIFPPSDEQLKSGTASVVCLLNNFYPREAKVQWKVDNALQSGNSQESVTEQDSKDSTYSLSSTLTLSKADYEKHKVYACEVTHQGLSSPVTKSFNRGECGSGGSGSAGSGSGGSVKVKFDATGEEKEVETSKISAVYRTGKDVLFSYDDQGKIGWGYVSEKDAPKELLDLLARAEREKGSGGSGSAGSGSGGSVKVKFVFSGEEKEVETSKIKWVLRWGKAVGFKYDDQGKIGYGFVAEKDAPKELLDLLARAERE
B8: polypeptide comprising the amino acid sequence of SEQ ID NO: 33 (designed binder)
chain: MVKVKFAATGEEKEVETSKIANVYRVGKDVLFSYDDQGKIGWGYVSEKDAPKELLDLLARAEREK
B9: polypeptide comprising the amino acid sequence of SEQ ID NO: 34 (designed binder)
chain: B8 chain with A7D, A21S, N22A, V26T

Chain of human serum albumin (HSA) (P02768 25-609 limits assumed): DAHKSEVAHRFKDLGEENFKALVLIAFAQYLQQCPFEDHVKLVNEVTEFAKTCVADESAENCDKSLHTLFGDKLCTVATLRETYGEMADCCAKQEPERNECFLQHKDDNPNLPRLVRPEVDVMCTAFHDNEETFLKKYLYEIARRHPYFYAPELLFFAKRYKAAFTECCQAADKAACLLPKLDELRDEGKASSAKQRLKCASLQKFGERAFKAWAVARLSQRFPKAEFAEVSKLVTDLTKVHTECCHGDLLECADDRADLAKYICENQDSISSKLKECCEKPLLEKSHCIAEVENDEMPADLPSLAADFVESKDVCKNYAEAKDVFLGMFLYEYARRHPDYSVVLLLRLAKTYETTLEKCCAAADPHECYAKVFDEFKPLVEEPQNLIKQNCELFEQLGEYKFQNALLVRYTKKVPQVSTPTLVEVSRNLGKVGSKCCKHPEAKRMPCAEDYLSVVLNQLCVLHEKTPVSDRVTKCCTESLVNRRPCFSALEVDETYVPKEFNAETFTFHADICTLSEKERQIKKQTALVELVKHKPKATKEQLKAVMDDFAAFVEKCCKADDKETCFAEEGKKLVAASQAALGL

The first experiment deals with T1, complement component 3 (C3) (UniProt P01024 23-1663).
T1 construct: Purified bought protein; native C3 is a disulfide-linked two-chain protein made from one precursor
T1 sequence (P01024 23-1663 limits assumed): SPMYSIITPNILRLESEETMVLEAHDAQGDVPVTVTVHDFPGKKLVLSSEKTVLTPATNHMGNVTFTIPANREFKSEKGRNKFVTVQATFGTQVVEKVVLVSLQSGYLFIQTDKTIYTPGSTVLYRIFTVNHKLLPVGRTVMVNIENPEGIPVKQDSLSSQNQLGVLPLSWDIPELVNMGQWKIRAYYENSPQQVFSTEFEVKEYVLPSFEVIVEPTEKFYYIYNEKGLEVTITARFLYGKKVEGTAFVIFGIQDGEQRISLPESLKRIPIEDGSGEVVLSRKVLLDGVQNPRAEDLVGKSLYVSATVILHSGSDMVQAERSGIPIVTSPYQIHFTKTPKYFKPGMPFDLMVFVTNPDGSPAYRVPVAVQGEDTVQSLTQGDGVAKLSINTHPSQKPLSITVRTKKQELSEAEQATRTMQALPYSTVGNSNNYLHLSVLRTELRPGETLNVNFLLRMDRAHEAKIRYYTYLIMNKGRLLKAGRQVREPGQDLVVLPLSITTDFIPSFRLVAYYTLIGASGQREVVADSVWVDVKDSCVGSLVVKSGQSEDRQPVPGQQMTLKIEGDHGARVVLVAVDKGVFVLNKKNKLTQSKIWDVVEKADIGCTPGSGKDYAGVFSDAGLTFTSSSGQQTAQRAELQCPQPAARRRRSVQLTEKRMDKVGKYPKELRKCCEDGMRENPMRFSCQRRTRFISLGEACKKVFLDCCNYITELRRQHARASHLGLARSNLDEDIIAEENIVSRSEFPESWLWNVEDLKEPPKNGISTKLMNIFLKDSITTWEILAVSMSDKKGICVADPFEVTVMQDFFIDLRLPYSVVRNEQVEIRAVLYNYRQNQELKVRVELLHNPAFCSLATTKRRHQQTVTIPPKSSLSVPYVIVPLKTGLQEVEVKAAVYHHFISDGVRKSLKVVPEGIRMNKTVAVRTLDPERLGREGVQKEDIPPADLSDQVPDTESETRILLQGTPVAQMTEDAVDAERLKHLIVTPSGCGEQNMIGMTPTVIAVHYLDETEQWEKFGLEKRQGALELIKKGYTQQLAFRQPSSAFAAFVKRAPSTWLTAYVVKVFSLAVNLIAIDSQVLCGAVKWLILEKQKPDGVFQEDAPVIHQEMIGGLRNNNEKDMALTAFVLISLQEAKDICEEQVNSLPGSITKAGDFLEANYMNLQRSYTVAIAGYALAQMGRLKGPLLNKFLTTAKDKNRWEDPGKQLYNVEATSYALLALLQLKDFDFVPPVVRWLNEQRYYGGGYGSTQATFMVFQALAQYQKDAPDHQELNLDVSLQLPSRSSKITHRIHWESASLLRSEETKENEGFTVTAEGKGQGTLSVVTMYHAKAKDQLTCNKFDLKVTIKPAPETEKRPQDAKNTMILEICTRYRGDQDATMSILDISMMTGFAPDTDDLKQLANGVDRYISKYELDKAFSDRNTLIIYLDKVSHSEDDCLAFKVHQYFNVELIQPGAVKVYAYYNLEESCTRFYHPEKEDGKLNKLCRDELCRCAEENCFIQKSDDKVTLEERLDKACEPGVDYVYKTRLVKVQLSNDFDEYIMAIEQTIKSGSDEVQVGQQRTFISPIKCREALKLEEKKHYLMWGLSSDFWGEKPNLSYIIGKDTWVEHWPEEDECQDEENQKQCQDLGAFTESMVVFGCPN
The experiment in a line: ITC, polypeptide titrated into C3; fit box in the lower panel. In general terms: Isothermal titration calorimetry measures the heat released or taken up as one component is titrated into another.
For the molecule B1, the Ka came out at 4.74e+08 M⁻¹.

A further experiment has as its target T1, complement component 3 (C3). Briefly: cell-based or functional assay.
Take B2: the “IC50 (nM) Alternative Pathway (Wieslab® assay)” value (from here on “IC50 (nM) Alternative Pathway”) was determined as 170 nM and the “IC50 (nM) Classical Pathway (Wieslab® assay)” value (from here on “IC50 (nM) Classical Pathway”) amounted to 63 nM.
Turning to B3, the “IC50 (nM) Alternative Pathway” value was 246 nM and the “IC50 (nM) Classical Pathway” value came to 65 nM.
Turning to B4, the “IC50 (nM) Alternative Pathway” value amounted to 121 nM and the “IC50 (nM) Classical Pathway” value worked out at 48 nM.
With B5, the “IC50 (nM) Alternative Pathway” value was 273 nM and the “IC50 (nM) Classical Pathway” value was 78 nM.
For B6 the same measures were 123 nM and 47 nM.

The target is the same in a further experiment. Briefly: SPR, single cycle kinetics, 1:1 Langmuir fit; text says C3 (Cat #A113c) was immobilised, the column's head prints 'Binding to C3b'. As for the experimental part: C3 binding, VEGF binding, HSA binding, and equilibrium dissociation constant (KD) measurements were determined by Surface Plasmon Resonance (SPR) using the Sierra SPR-23 instrument. C3 protein was obtained from Complement Technology, Inc. (Cat #A113c). VEGF protein was obtained from Sino Biologicals, Inc. HSA protein was obtained from Sigma-Aldrich, Inc. (Cat #A3782). The Fab fusion proteins described in Example 8 were stored each at 1 mg/mL in PBST, pH 7.4.
(§1) In summary, ligands were immobilized under the following conditions: 25° C. on a Sierra Sensors HCA (CM5), Running Buffer of PBST (10 mM Phosphate Buffer pH 7.4, 150 mM NaCl, 0.05% Tween-20; pH 7.4), amine coupling Immobilization Buffer of 10 mM NaOAc pH 5.0, activation with EDC/NHS 7 minutes, immobilization for 2 minutes, and blocking with 1 M ethanolamine for 7 minutes.
(§2) An 8-point, 3-fold serial dilution assay was performed in duplicate for the Fab fusion proteins described in Example 8 starting at 100 nM. Sensorgrams were analyzed using Sierra Sensors Analyzer with a double reference to determine the interaction parameters ka, kd, and KD. The reference channel was first subtracted from the ligand channel as the first reference. The internal blank injections were set to closest blank after injection based on the method. The kd was calculated for the top concentration by fitting the off-rate part of the curve. The kd was then set to global constant for fitting rest of the curves. Rmax was fit locally for each individual curve since the number of available binding sites changed after each injection. Binding data was fit to a 1:1 Langmuir model.
(In general: SPR reads the build-up and loss of mass on a sensor chip optically.)
What is called Kd is the free concentration of one partner at which half of the binding sites on the other are occupied at equilibrium, for simple one-to-one binding. The low end stands for higher affinity, the high end for lower affinity. B2 displayed a dissociation constant (Kd) of 1.42 nM.
B3 yielded an equilibrium dissociation constant (Kd) of 1.31 nM.
For B4, the dissociation constant (Kd) worked out at 0.14 nM. Compared with the last molecule, the Kd is about 9.4-fold lower.
Regarding B5, the dissociation constant Kd amounted to 4.09 nM.
On the same count and under the same terms, the result for B6 reads 0.13 nM.
For B7, the Kd worked out at 0.21 nM.

A further experiment has the same target. The experiment in a line: ITC, binder titrated into target.
On to B8, for which the “-TΔS” value turned out to be 6.6 kcal/mol, binding was characterised by a dissociation constant (Kd) of 1.9 nM, the N worked out at 0.94 and the ΔG was -11.9 kcal/mol. Also, the ΔH was -18.5 kcal/mol.
For B9 the same measures were 16.7 kcal/mol, 1.3 nM, 0.85, -12.1 kcal/mol and -28.8 kcal/mol.
As to B1, the “-TΔS” value is 23.4 kcal/mol; the affinity, expressed as Kd, was 2.1 nM; the N stood at 0.98; the ΔG was -11.8 kcal/mol. The molecule also displayed a ΔH of -35.2 kcal/mol.

The target is the same in another experiment. The experiment in a line: ITC.
B8 gave a dissociation constant (Kd) of 1.9 nM.
In turn, B9 displayed a Kd of 1.3 nM. The Kd values of the last two molecules are within 1.5-fold of each other.

A further experiment shares this target. The experiment in a line: ITC; ITC, not SPR.
B1 came in with a Kd of 2.1 nM.

For another experiment the target is unchanged. The experiment in a line: SPR, target amine-coupled to chip, single cycle kinetics, 1:1 Langmuir fit. As for the experimental part:
In summary, ligands were immobilized under the following conditions: 25° C. on a Sierra Sensors HCA (CM5), Running Buffer of PBST (10 mM Phosphate Buffer pH 7.4, 150 mM NaCl, 0.05% Tween-20; pH 7.4), amine coupling Immobilization Buffer of 10 mM NaOAc pH 4.0, activation with EDC/NHS 6 minutes, immobilization for 1 minute, and blocking with 1 M ethanolamine.
An 8-point, 3-fold serial dilution assay was performed in duplicate for the polypeptides described in Example 1 starting at either 20 nM, 50 nM, or 200 nM.
as §2, with “Sensorgrams” for “An 8-point, 3-fold serial dilution assay was performed in duplicate for the Fab fusion proteins described in Example 8 starting at 100 nM. Sensorgrams”, “Analyzer software version 3.1.33” for “Analyzer”
In turn, B8 returned a Kd of 0.22 nM.
B9 came in with a Kd of 0.66 nM.
For the molecule B1, the Kd amounted to 1.94 nM.

The next experiment has the same target. The experiment in a line: ITC, polypeptide titrated into C3; fit box in the lower panel. The source holds these as a separate data set.
B8: the Ka turned out to be 5.36e+08 M⁻¹.

Another experiment has as its target human serum albumin (HSA) (human, UniProt P02768 25-609). The experiment in a line: SPR, HSA amine-coupled to chip, single cycle kinetics, 1:1 Langmuir fit. As for the experimental part: C3, VEGF, and HSA were placed onto Spots B, C, and D, respectively, across all 8 channels to test for the binding of the supplied analytes. Spot A was used as a reference spot. The conditioned biosensor chip was chemically activated with EDC/NHS. Ligands were then injected onto the activated surface to allow for immobilization. After immobilization, 1 M ethanolamine was injected to block any remaining reactive carboxyl groups in the carboxymethylated dextran surface.
as §1, §2
B2 gave a Kd of 8.9 nM.
Regarding B3, the affinity, expressed as Kd, was 3 nM.
In turn, B4 gave a Kd of 16.9 nM.
The same measure, in the same setting: the result for B5 reads 90.6 nM; that for B6, 0.1 nM.
B7: the Kd came to 16.9 nM.

The target of a further experiment is T1, complement component 3 (C3). The experiment in a line: cell-based or functional assay. This is another data set of the same source.
As to B8, the “IC50 (nM) Alternative (ELISA-based complement activation assay)” value stood at 447 nM and the “IC50 (nM) Classical (ELISA-based complement activation assay)” value was determined as 63 nM.
As for B9, the “IC50 (nM) Alternative (ELISA-based complement activation assay)” value worked out at 286 nM and the “IC50 (nM) Classical (ELISA-based complement activation assay)” value turned out to be 79 nM.
The like results for B1 were, in that order, 700 nM and 743 nM.
